# According to PMC6834915:
# Molecular target: CdiI^Kp342 immunity protein (untagged) (Klebsiella pneumoniae 342)
# Assay: crystal structure
substance,measurement,value
CdiI^Kp342 immunity protein (untagged) (natural protein),stoichiometry N,2
